Substrate in this data set: O=C(COP(=O)(O)O)[C@@H](O)[C@H](O)[C@H](O)COP(=O)(O)O
Description: purified protein, by the assay type. Particulars: apparent Km for substrate FBP, pH 7.5, 37.0 °C.

[1] abbreviates: other: enzyme M177A_2 (second clone).

Positions count from the first letter of the chain named. Numbers in names are those of the source.

As usually defined, the Vmax is the rate approached at saturating substrate. In general, kcat refers to the number of substrate molecules converted per active site and unit of time at saturation. What is called kcat/Km is the turnover number divided by the Michaelis constant.

B1: pig kidney FBPase L73A (Sus scrofa; L74A) (protein)
chain: MTDQAAFDTNIVTLTRFVMEEGRKARGTGEMTQLLNSLCTAVKAISTAVRKAGIAHLYGIAGSTNVTGDQVKKADVLSNDLVINVLKSSFATCVLVSEEDKNAIIVEPEKRGKYVVCFDPLDGSSNIDCLVSIGTIFGIYRKNSTDEPSEKDALQPGRNLVAAGYALYGSATMLVLAMVNGVNCFMLDPAIGEFILVDRDVKIKKKGSIYSINEGYAKEFDPAITEYIQRKKFPPDNSAPYGARYVGSMVADVHRTLVYGGIFMYPANKKSPKGKLRLLYECNPMAYVMEKAGGLATTGKEAVLDIVPTDIHQRAPIILGSPEDVTELLEIYQKHAAK
As to B1, where the note is “other: enzyme L73A”, the Km was 5.10 (± 0.3) µM, the maximum rate (Vmax) is 50.5 µM/min, the kcat came out at 22.5 s⁻¹ and the catalytic efficiency (kcat/Km) came to 4.41e+06 M⁻¹ s⁻¹.

B2: pig kidney FBPase WT (Sus scrofa) (protein)
chain: B1 chain with A74L
Take B2: for the setting “other: enzyme WT”, the Km was 4.80 (± 0.5) µM, the maximum rate (Vmax) turned out to be 41.8 µM/min, the catalytic constant (kcat) was 20.5 s⁻¹ and the specificity constant (kcat/Km) was determined as 4.3e+06 M⁻¹ s⁻¹.

B3: pig kidney FBPase K112A (Sus scrofa; K113A) (protein)
chain: B1 chain with A74L, K113A
As to B3, where the note is “other: enzyme K112A”, the Km is given as 3.25 (± 0.2) µM, the Vmax was determined as 54.7 µM/min, the kcat is 26.8 s⁻¹ and the specificity constant (kcat/Km) was 8.25e+06 M⁻¹ s⁻¹.

B4: pig kidney FBPase Y113A (Sus scrofa; Y114A) (protein)
chain: B1 chain with A74L, Y114A
As to B4, under “other: enzyme Y113A”, the Km is listed as 2.50 (± 0.3) µM, the maximal velocity (Vmax) came out at 55.5 µM/min, the catalytic constant (kcat) came out at 27.2 s⁻¹ and the specificity constant (kcat/Km) was 1.09e+07 M⁻¹ s⁻¹.

B5: pig kidney FBPase M248D (Sus scrofa; M249D) (protein)
chain: B1 chain with A74L, M249D
On to B5, for which, under “other: enzyme M248D”, the Km is recorded as 1.25 (± 0.4) µM, the Vmax was 62.2 µM/min, the turnover number (kcat) is 30.5 s⁻¹ and the kcat/Km was determined as 2.44e+07 M⁻¹ s⁻¹.

B6: pig kidney FBPase M177A (Sus scrofa; M178A) (protein)
chain: B1 chain with A74L, M178A
B6: where the note is “other: enzyme M177A_1”, the Km is listed as 4.20 (± 0.6) µM, the maximal velocity (Vmax) amounted to 26.1 µM/min, the kcat came to 12.8 s⁻¹ and the kcat/Km is 3.1e+06 M⁻¹ s⁻¹. For the same protein, under setting [1], the Km is recorded as 4.80 (± 0.5) µM, the maximum rate (Vmax) turned out to be 23.4 µM/min, the kcat amounted to 11.5 s⁻¹ and the kcat/Km was 2.4e+06 M⁻¹ s⁻¹.

B7: pig kidney FBPase L56A (Sus scrofa; L57A) (protein)
chain: B1 chain with L57A, A74L
Turning to B7, where the note is “other: enzyme L56A”, the Km was 5.20 (± 0.2) µM, the maximal velocity (Vmax) was found to be 52.3 µM/min, the kcat is 25.6 s⁻¹ and the kcat/Km came to 4.9e+06 M⁻¹ s⁻¹.

B8: pig kidney FBPase Y164A (Sus scrofa; Y165A) (protein)
chain: B1 chain with A74L, Y165A
As for B8, under “other: enzyme Y164A”, the Km is reported as 5.30 (± 0.6) µM, the maximum rate (Vmax) was 27.5 µM/min, the kcat stood at 13.5 s⁻¹ and the kcat/Km turned out to be 2.6e+06 M⁻¹ s⁻¹.

Values taken from PMC6386767, “Characterization of recombinant fructose-1,6-bisphosphatase gene mutations: evidence of inhibition/activation of FBPase protein by gene mutation” (Bioscience Reports, 2019).
